Test results: patent publication US12577311

What was measured:
[1] = target: CD70-APC (UniProt P32970); test: FACS binding
[2] = target: CD70 on CD70+ skrc-59 ccRCC cells (UniProt P32970); test: FACS binding; details: Fc fusion
Chain of CD70 on CD70+ skrc-59 ccRCC cells (P32970 whole entry, the tested form may be a part): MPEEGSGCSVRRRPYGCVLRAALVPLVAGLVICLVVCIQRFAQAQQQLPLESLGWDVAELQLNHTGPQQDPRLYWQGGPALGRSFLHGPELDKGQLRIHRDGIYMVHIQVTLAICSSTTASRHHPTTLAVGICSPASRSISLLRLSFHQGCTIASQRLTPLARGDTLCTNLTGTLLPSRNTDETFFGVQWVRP

Chain of CD70-APC (P32970 39-193): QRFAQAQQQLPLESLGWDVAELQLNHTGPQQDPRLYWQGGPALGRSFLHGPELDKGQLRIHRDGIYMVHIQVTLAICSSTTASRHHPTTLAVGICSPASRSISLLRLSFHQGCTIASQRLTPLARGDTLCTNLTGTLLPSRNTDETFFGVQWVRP

EC50 [1] | EC50 [2] | Substance
0.917 µg/mL | – | CD27
– | 0.114 µg/mL | anti-CD70 minibody #7 (from UniProt P01721 20-117)
